Biological target: EGFP-hTNF-α fusion protein comprising the enterokinase-recognizing sequence, P01375
Sequence (P01375 other isoform, or with tags, fused parts or gaps): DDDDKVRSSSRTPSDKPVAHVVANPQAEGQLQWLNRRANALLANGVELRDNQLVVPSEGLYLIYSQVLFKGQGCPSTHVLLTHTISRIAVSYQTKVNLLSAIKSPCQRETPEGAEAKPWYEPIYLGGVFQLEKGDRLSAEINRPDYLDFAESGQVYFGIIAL

B1: human enterokinase light chain protein produced in transformed rice suspension cells (protein)
chain: IVGGSNAKEGAWPWVVGLYYGGRLLCGASLVSSDWLVSAAHCVYGRNLEPSKWTAILGLHMKSNLTSPQTVPRLIDEIVINPHYNRRRKDNDIAMMHLEFKVNYTDYIQPICLPEENQVFPPGRNCSIAGWGTVVYQGTTANILQEADVPLLSNERCQQQMPEYNITENMICAGYEEGGIDSCQGDSGGPLMCQENNRWFLAGVTSFGYKCALPNRPGVYARVSRFTEWIQSFLH
  endopeptidase activity: exhibited the activity of the human enterokinase light chain protein, i.e., recognizing and cleaving the DDDDK amino acid sequence
